Measured values taken from US20230391828A1, “REGULATORS OF CELL DIVISION” (TECHNISCHE UNIVERSITÄT DRESDEN, priority 2020, published 2023).
“Also recorded” adds a separate entry of the source. Bridge positions count the residues as written; N and C are the ends. Square brackets hold non-standard residues; d marks the D form. 2Nal = N[C@@H](Cc1ccc2ccccc2c1)C(=O)O; R8 = C=CCCCCCC[C@@](C)(N)C(=O)O; S5 = C=CCCC[C@](C)(N)C(=O)O; Pra = C#CC[C@H](N)C(=O)O

Experiments:
APC/C (APC11) = target: T1, APC/C (APC11) (Homo sapiens, UniProt Q9NYG5); assay: Pull-down binding assay in HeLa K cell extract, APC/C; details: Pra peptide clicked to azide agarose or magnetic beads, Western blot
T1 construct: endogenous in cells; host or cells: HeLa K cell extract
Method: (§1) For the protein transfer, the 0.45 μm Immobilon-FL PVDF membrane (Merck Millipore) was used. The membrane was activated in ethanol and then transferred to the Blotting buffer (50 mM SDS-MOPS, 50 mM Tris base, 0.1% SDS, 1 mM EDTA, 20% EtOH). The proteins were transferred using a wet transfer for 1.5 h at 400 mA. Subsequently, the membrane was incubated with the blocking solution, 10% milk in PBS-T (0.02% Tween-20 in PBS), for 1 h at room temperature. To detect proteins of the interest, the membrane was incubated with primary antibodies overnight at 4° C. Followed by washing the membrane 3 times 10 min with PBS-T and incubation with IRDye fluorescently labelled secondary antibodies for 1 h. Prior detection, the membrane was twice washed with PBS-T for 10 min and once with PBS for 10 min. The detection was done using the quantitative near-infrared scanning system Odyssey (LI-COR Biosciences).
HeLa K cell pellet was re-suspended in the extraction buffer (30 mM HEPES pH 7.5, 175 mM NaCl, 2.5 mM MgCl2, 0.25% NP40, 10% glycerol, 1 mM DTT) supplemented with 10 μM MG132 (VWR), 1 mM PMSF (Sigma-Aldrich), complete protease inhibitor cocktail (Roche) and PhosSTOP phosphatase inhibitors (Roche) and incubated for 20 min on ice, followed by centrifugation of cell debris for 15 min at 4° C. 16 100 g. In mean time, inhibitor molecules containing Propargyl (Pra) chemical group were covalently attached to the azide agarose or azide magnetic resin (Jena Bioscience) by Cu(I)-catalysed azide-alkyne cycloaddition reaction. Specifically, the inhibitor molecules were mixed with azide agarose resin in ratio 0.125 μmol inhibitor/25 μl agarose resin and azide magnetic resin in ratio 0.018 μmol inhibitor/20 μl magnetic resin. The reaction was catalysed by 1 mM CuSO4, 0.1 mM TBTA (Sigma-Aldrich) and 1 mM Sodium ascorbate and was performed on the rotating wheel for 30 min at room temperature in the volume of 1 ml. Subsequently, the resin was washed 5 times with the extraction buffer. The inhibitor-agarose resin was added to 1 mg of HeLa K cell extract and the inhibitor-magnetic resin was added to 0.5 mg of HeLa K cell extract followed by incubation at 4° C. for 2 h. Followed by washing the resin 5 times with the extraction buffer. Pull-down proteins were eluted by boiling for 15 min with 1×LDS sample buffer supplemented with 100 mM DTT (agarose resin) or by incubation with 1×LDS sample buffer for 10 min at room temperature followed by taking supernatant that was supplemented with 100 mM DTT and boiling it for 10 min. Samples were subjected to SDS PAGE and Western blot analysis.
HeLa K cell pellet was re-suspended in the extraction buffer (30 mM HEPES pH 7.5, 175 mM NaCl, 2.5 mM MgCl2, 0.25% NP40, 10% glycerol, 1 mM DTT supplied with complete protease inhibitor cocktail (Roche), PhosSTOP phosphatase inhibitors (Roche), 1 mM PMSF, 10 μM MG132) and incubated for 20 min on ice, followed by centrifugation to clear the lysate for 15 min at 4° C. 16,100 g. In the meantime, inhibitor molecules containing the propargyl-Gly-OH (Pra) chemical group were covalently attached to the azide agarose resin (Jena Bioscience) by Cu(I)-catalysed azide-alkyne cycloaddition reaction. Specifically, the inhibitor molecules were mixed with azide agarose resin in ratio 0.125 μmol inhibitor/20 μl agarose resin. The reaction was catalysed by 0.1 mM CuSO4, 0.5 mM THPTA (Sigma-Aldrich) and 5 mM Sodium ascorbate and was performed on the rotating wheel for 30 min at room temperature in the volume of 1 ml. […]

Cullin 1 = target: T2, Cullin 1 (Homo sapiens, UniProt Q13616); assay: Pull-down binding assay in HeLa K cell extract, Cullin 1; details: azide beads, Western blot
T2 construct: endogenous in cells; host or cells: HeLa K cell extract
Method: as §1
(§2) HeLa K cell pellet was re-suspended in the extraction buffer (30 mM HEPES pH 7.5, 175 mM NaCl, 2.5 mM MgCl2, 0.25% NP40, 10% glycerol, 1 mM DTT) supplemented with 10 μM MG132 (VWR), 1 mM PMSF (Sigma-Aldrich), complete protease inhibitor cocktail (Roche) and PhosSTOP phosphatase inhibitors (Roche) and incubated for 20 min on ice, followed by centrifugation of cell debris for 15 min at 4° C. 16 100 g. […]

RBX1 = target: T3, RBX1 (Homo sapiens, UniProt P62877); assay: Pull-down binding assay in HeLa K cell extract, RBX1; details: azide beads, Western blot
T3 construct: endogenous in cells; host or cells: HeLa K cell extract
Method: as §1, §2

APC/C = target: T4, APC/C (Homo sapiens, UniProt Q9NYG5); assay: In vitro APC/C ubiquitination assay driven by the E2 enzyme UBE2C, fluorophore-labelled securin substrate; assay type: biochemical; details: 100 μM, UBE2C, reaction time 45 min
T4 construct: made in house; host or cells: SF9 insect cells (baculovirus)
Method: Proteins were separated by SDS-PAGE electrophoresis using precast Bolt 4-12% Bis-Tris Plus protein gels (Thermo Fisher Scientific) and Criterion XT Bis-Tris Midi Protein Gels (Bio-Rad). In different experiments, various conditions were used: in vitro APC/C ubiquitination assays—165 V, 40 min, SDS-MES running buffer (50 mM MES, 50 mM Tris base, 0.1% SDS, 1 mM EDTA, pH 7.3; Thermo Fisher Scientific); in vitro APC/C ubiquitination assays determining KM—165V, 1 h, SDS-MOPS running buffer (50 mM MOPS, 50 mM Tris base, 0.1% SDS, 1 mM EDTA, pH 7.7; Thermo Fisher Scientific); pull-down binding assay—165 V, 35 min, SDS-MES running buffer.
APC/C-dependent ubiquitination reactions were performed at 30° C. in 30 mM HEPES pH 7.4, 175 mM NaCl, 8 mM MgCl2, 0.05% Tween-20, 1 mM DTT and 5% glycerol and contained 20 nM recombinant APC/C (note, for testing the first generation of inhibitors, APC/C and Cdc20 immunoprecipitated from mitotic HeLa K cells was used), 340 nM Cdc20, 46 nM GST-UBA1, 340 nM UBE2C (alternatively 400 nM UBE2D1, 280 nM UBE2S), 21 μM His6-ubiquitin or if it is indicated 21 μM methylated-ubiquitin (BostonBiochem), 2.6 mM ATP, 10 mM phosphocreatine and 11 μM creatine kinase. As substrates, 35 nM fluorophore-labeled ubiquitin-cyclin B and 50 nM fluorophore-labeled securin were standardly used (fluorophore IRDye 800CW (LI-COR) was used for labelling). In case of KM and kcat determination, 50, 100, 250, 500, 750, 1000, 1250, 2500 and 5000 nM fluorophore-labelled securin was used. The reaction was done in the volume of 15 μl, it was quenched after the indicated time with LDS sample buffer (Thermo Fisher Scientific) supplemented with 100 mM DTT and subjected to SDS-PAGE. Detection of fluorescently labelled substrates was done by quantitative near-infrared scanning system Odyssey.

hTERT RPE-1 cells = assay: Live cell imaging of hTERT RPE-1 cells; assay type: cell-based; details: hTERT RPE-1, 100 μM, imaged 12-24 h
Method: Automated time-lapse microscopy was performed using ImageXpress Micro XLS wide-field screening microscope (Molecular Devices) equipped with a 10×, 0.5 NA., 20×, 0.7 NA, and 40×, 0.95 NA Plan Apo air objectives (Nikon), a laser-based autofocus and a full environmental control (5% CO2, 37° C.). Cells were grown in 96-well plastic bottom plates (clear, Greiner Bio-One) and for live cell imaging media was changed to DMEM without phenol red and riboflavin (Thermo Fisher Scientific), supplemented with 10% (v/v) FBS, 1% (v/v) Glutamax, 1% (v/v) penicillin-streptomycin, and 0.5 μg/ml amphotericin B.
hTERT RPE-1 cells were seeded into 96-well plates (5000 cells) one day prior the treatment with compounds of the invention. Cells were treated with 100 μM of compound G2-6 and the negative control molecule G2-N2 and cell division was monitored by live cell imaging using ImageXpress Micro XLS wide-field screening microscope, images were acquired every 3 min for time courses of 12-24 h. The length of mitosis was determined manually.

T2 sequence (Q13616 whole entry): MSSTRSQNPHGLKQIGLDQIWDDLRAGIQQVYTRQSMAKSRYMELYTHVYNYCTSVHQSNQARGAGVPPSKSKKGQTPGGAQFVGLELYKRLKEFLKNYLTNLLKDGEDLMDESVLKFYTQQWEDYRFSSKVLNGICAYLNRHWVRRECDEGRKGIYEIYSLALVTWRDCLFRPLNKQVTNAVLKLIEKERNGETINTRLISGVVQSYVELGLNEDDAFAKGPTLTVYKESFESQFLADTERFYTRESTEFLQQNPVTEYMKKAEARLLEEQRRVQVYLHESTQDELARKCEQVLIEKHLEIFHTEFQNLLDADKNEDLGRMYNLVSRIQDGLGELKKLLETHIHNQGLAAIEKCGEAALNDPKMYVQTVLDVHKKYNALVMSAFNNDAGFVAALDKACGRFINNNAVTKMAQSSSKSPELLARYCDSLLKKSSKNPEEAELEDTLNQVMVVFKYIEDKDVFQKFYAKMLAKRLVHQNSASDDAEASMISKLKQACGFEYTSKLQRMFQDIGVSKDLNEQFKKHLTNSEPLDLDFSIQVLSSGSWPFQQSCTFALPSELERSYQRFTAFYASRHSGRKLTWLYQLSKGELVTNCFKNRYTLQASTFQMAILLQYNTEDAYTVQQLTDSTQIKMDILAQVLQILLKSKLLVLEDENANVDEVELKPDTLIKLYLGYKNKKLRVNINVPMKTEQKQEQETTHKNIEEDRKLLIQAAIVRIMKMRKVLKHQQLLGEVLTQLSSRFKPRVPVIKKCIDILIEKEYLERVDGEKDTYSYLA
T3 sequence (P62877 whole entry): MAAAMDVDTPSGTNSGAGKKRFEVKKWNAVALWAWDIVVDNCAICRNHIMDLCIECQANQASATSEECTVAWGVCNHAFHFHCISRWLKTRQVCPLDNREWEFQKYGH

Row | Substance | binding to the APC/C (pull-down) (APC/C (APC11)) | binding to Cullin 1 (pull-down) (Cullin 1) | binding to RBX1 (pull-down) (RBX1) | inhibition of APC/C activity in vitro compared with TAME (APC/C; 3 independent assays) | inhibition of APC/C activity in vitro (ubiquitinated securin) (APC/C) | cell fate (cell death) (hTERT RPE-1 cells) | effect on mitosis (length of mitosis) (hTERT RPE-1 cells)
1 | Ac-cyclo(4,11)-EWPraZIKEIQRXRRA-NH2 (Ac-EW[Pra][R8]IKEIQR[S5]RRA-NH2; staple 4-11; SMILES C#CC[C@H](NC(=O)[C@H](Cc1c[nH]c2ccccc12)NC(=O)[C@H](CCC(=O)O)NC(C)=O)C(=O)N[C@]1(C)CCCCCCC=CCCC[C@@](C)(C(=O)N[C@@H](CCCNC(=N)N)C(=O)N[C@@H](CCCNC(=N)N)C(=O)N[C@@H](C)C(N)=O)NC(=O)[C@H](CCCNC(=N)N)NC(=O)[C@H](CCC(N)=O)NC(=O)[C@H]([C@@H](C)CC)NC(=O)[C@H](CCC(=O)O)NC(=O)[C@H](CCCCN)NC(=O)[C@H]([C@@H](C)CC)NC1=O) [G3-6Pra] | binds to the APC/C | does not bind | does not bind | – | – | – | –
2 | Ac-cyclo(5,9)-RWPPraXKWDXQVRRW-NH2 (Ac-RWP[Pra][S5]KWD[S5]QVRRW-NH2; staple 5-9; SMILES C#CC[C@H](NC(=O)[C@@H]1CCCN1C(=O)[C@H](Cc1c[nH]c2ccccc12)NC(=O)[C@H](CCCNC(=N)N)NC(C)=O)C(=O)N[C@@]1(C)CCCC=CCCC[C@@](C)(C(=O)N[C@@H](CCC(N)=O)C(=O)N[C@H](C(=O)N[C@@H](CCCNC(=N)N)C(=O)N[C@@H](CCCNC(=N)N)C(=O)N[C@@H](Cc2c[nH]c3ccccc23)C(N)=O)C(C)C)NC(=O)[C@H](CC(=O)O)NC(=O)[C@H](Cc2c[nH]c3ccccc23)NC(=O)[C@H](CCCCN)NC1=O) [G3-1Pra] | binds to the APC/C (APC2 and APC11) | almost does not bind | – | – | – | – | –
3 | Ac-cyclo(5,9)-RWPQXKWDXQVRRW-NH2 (Ac-RWPQ[S5]KWD[S5]QVRRW-NH2; staple 5-9; SMILES CC(=O)N[C@@H](CCCNC(=N)N)C(=O)N[C@@H](Cc1c[nH]c2ccccc12)C(=O)N1CCC[C@H]1C(=O)N[C@@H](CCC(N)=O)C(=O)N[C@@]1(C)CCCC=CCCC[C@@](C)(C(=O)N[C@@H](CCC(N)=O)C(=O)N[C@H](C(=O)N[C@@H](CCCNC(=N)N)C(=O)N[C@@H](CCCNC(=N)N)C(=O)N[C@@H](Cc2c[nH]c3ccccc23)C(N)=O)C(C)C)NC(=O)[C@H](CC(=O)O)NC(=O)[C@H](Cc2c[nH]c3ccccc23)NC(=O)[C@H](CCCCN)NC1=O) [G3-1] | binds specifically to the APC/C | – | – | inhibit APC/C in vitro more efficiently than TAME | – | – | –
4 | cyclo(1,14)-[L 2-NaI L W K W E W E K R K p P] (cyclo(L[2Nal]LWKWEWEKRK[dP]P); SMILES CC(C)C[C@@H]1NC(=O)[C@H](Cc2ccc3ccccc3c2)NC(=O)[C@H](CC(C)C)NC(=O)[C@@H]2CCCN2C(=O)[C@H]2CCCN2C(=O)[C@H](CCCCN)NC(=O)[C@H](CCCNC(=N)N)NC(=O)[C@H](CCCCN)NC(=O)[C@H](CCC(=O)O)NC(=O)[C@H](Cc2c[nH]c3ccccc23)NC(=O)[C@H](CCC(=O)O)NC(=O)[C@H](Cc2c[nH]c3ccccc23)NC(=O)[C@H](CCCCN)NC(=O)[C@H](Cc2c[nH]c3ccccc23)NC1=O) [G2-6] | – | – | – | – | the most potent molecule from item (f); also recorded: inhibit APC/C in vitro the most effectively compared to other molecules of item (f) | causes cell death; also recorded: mitotic or subsequent cell death | prolongs mitosis; also recorded: causes prolonged mitosis
